Assay results reported in patent publication US20210253737A1.

Experiments:
[1] = target: carboxymethyl lysine conjugated to keyhole limpet hemocyanin (CML-KLH); test: direct binding ELISA, CML-KLH coat 1 µg/mL, antibody at 16.67 µg/mL
[2] = target: carboxymethyl lysine conjugated to keyhole limpet hemocyanin (CML-KLH); test: direct binding ELISA, CML-KLH coat 1 µg/mL, antibody at 0 µg/mL (buffer control well, background)
[3] = target: carboxymethyl lysine conjugated to keyhole limpet hemocyanin (CML-KLH); test: direct binding ELISA, CML-KLH coat 1 µg/mL, antibody at 5.56 µg/mL
[4] = target: carboxymethyl lysine conjugated to keyhole limpet hemocyanin (CML-KLH); test: direct binding ELISA, CML-KLH coat 1 µg/mL, antibody at 0.21 µg/mL
[5] = target: carboxymethyl lysine conjugated to keyhole limpet hemocyanin (CML-KLH); test: direct binding ELISA, CML-KLH coat 1 µg/mL, antibody at 1.85 µg/mL
[6] = target: carboxymethyl lysine conjugated to keyhole limpet hemocyanin (CML-KLH); test: direct binding ELISA, CML-KLH coat 1 µg/mL, antibody at 50 µg/mL
[7] = target: carboxymethyl lysine conjugated to keyhole limpet hemocyanin (CML-KLH); test: direct binding ELISA, CML-KLH coat 1 µg/mL, antibody at 0.62 µg/mL
[8] = target: carboxymethyl lysine conjugated to keyhole limpet hemocyanin (CML-KLH); test: direct binding ELISA, CML-KLH coat 1 µg/mL, antibody at 0.07 µg/mL

Substance: carboxymethyl lysine MAb (Clone 318003), R&D Systems, Inc., catalog no. MAB3247 (antibody)
- OD450 [1]: 0.312 OD450
- OD450 [2]: 0.09 OD450
- OD450 [3]: 0.165 OD450
- OD450 [4]: 0.075 OD450
- OD450 [5]: 0.092 OD450
- OD450 [6]: 0.462 OD450
- OD450 [7]: 0.083 OD450
- OD450 [8]: 0.086 OD450
